Data published in patent US20060084792A1 (UNITED STATES OF AMERICA AS REPRESENTED BY THE …, published 2006).

Assays:
[1] = target: the molecule itself; experiment: non-denaturing gradient PAGE (FIG. 18) and TEM; self-assembly of subunits
Method: (§1) The purity of the proteins was evaluated using denaturing polyacrylamide gel electrophoresis (GeneMate 8-16% Express Gels, ISC BioExpress). The ability of each of the circular permutations to form double rings was assessed by non-denaturing 4-40% gradient polyacrylamide gel (FIG. 18) as previously described (J K Trent, et al., 1991 Nature 354:490-493).
(§2) Samples were prepared for the electron microscope by drop casting on carbon-coated formvar substrates (Ladd) and stained with 1% uranyl acetate. Samples were visualized using a Leo 912AB electron microscope in bright field TEM mode at 65 kV with a tungsten filament electron source.
(§3) Samples of the five different circular permutated chaperonin polypeptides (without the joined EYFP sequence) were analyzed at 1 hour or 24 hours after addition of 1 mM ATP and 25 mM Mg²⁺ (FIG. 19A-J). All five circular permuted chaperonins analyzed formed double rings having the same structure as wild-type chaperonin double rings, with two rings of nine subunits each (FIG. 19A-E). […] The circular permutated chaperonin polypeptides 480 and 499 formed predominantly filamentous structures. For permutants at positions 480 and 499, heating the sample to 70 degrees C. for 30 minutes immediately after addition of ATP and Mg²⁺ produced longer filaments.

[2] = target: the molecule itself; experiment: TEM, negative stain, after adding 1 mM ATP and 25 mM Mg2+; self-assembly of subunits
Method: as §2, §3

[3] = target: the molecule itself; experiment: summary of native PAGE and TEM; self-assembly of subunits
Method: as §1, §2, §3

B1: position 316 circular permutant chaperonin protein (Sulfolobus shibatae TF55 beta subunit, termini relocated after residue 316) (other)
chain: MAILAVRRAKKSDLEKLARATGGRVISNIDELTSQDLGYAALVEERKVGEDKIVFVEGAKNPKSVSILIRGGLERVVDETERALRDALGTVADVIRDGRAVAGGGAVEIEIAKRLRKYAPQVGGKEQLAIEAYANAIEGLIMILAENAGLDPIDKLMQLRSLHENETNKWYGLNLFTGNPEDMWKLGVIEPALVKMNAIKAATEAVTLVLRIDDIVGGSGGTIPVIILKEGSSRTYGKEALRANIAAVKAIEEALKSTYGPRGMDKILVDSLGDITITNDGATILDKMDLQHPTGKLLVQIAKGQDEETADGTKTAVILAGELAKKAEDLLYKEIHPTIIVSGYKKAEEIALKTIQDIAQPVSINDTDVLRKVALTSLGSKAVAGAREYLADLVVKAVAQVAELRGDKWYVDLDNVQIVKKHGGSINDTQLVYGIVVDKEVVHPGMPKRIENAKIALLDASLEVEKPELDAEIRINDPTQMHKFLEEEENILKEKVDKIAATGANVVIAQKGIDEVAQHYLAKKG
notes: Entry is the single subunit; Original termini are joined by the linker GGSGGT; Assembles into double rings with two rings of nine subunits each; also called circular permutant at position 316; permutant 316
binding result [1]: binds

B2: position 499 circular permutant chaperonin protein (Sulfolobus shibatae TF55 beta subunit, termini relocated after residue 499) (other)
chain: MALGVIEPALVKMNAIKAATEAVTLVLRIDDIVGGSGGTIPVIILKEGSSRTYGKEALRANIAAVKAIEEALKSTYGPRGMDKILVDSLGDITITNDGATILDKMDLQHPTGKLLVQIAKGQDEETADGTKTAVILAGELAKKAEDLLYKEIHPTIIVSGYKKAEEIALKTIQDIAQPVSINDTDVLRKVALTSLGSKAVAGAREYLADLVVKAVAQVAELRGDKWYVDLDNVQIVKKHGGSINDTQLVYGIVVDKEVVHPGMPKRIENAKIALLDASLEVEKPELDAEIRINDPTQMHKFLEEEENILKEKVDKIAATGANVVIAQKGIDEVAQHYLAKKGILAVRRAKKSDLEKLARATGGRVISNIDELTSQDLGYAALVEERKVGEDKIVFVEGAKNPKSVSILIRGGLERVVDETERALRDALGTVADVIRDGRAVAGGGAVEIEIAKRLRKYAPQVGGKEQLAIEAYANAIEGLIMILAENAGLDPIDKLMQLRSLHENETNKWYGLNLFTGNPEDMWK
notes: Entry is the single subunit; Original termini are joined by the linker GGSGGT; Assembles into double rings with two rings of nine subunits each; also called circular permutant at position 499; permutant 499
binding result [1]: binds

B3: position 480 circular permutant chaperonin protein (Sulfolobus shibatae TF55 beta subunit, termini relocated after residue 480) (other)
chain: MANKWYGLNLFTGNPEDMWKLGVIEPALVKMNAIKAATEAVTLVLRIDDIVGGSGGTIPVIILKEGSSRTYGKEALRANIAAVKAIEEALKSTYGPRGMDKILVDSLGDITITNDGATILDKMDLQHPTGKLLVQIAKGQDEETADGTKTAVILAGELAKKAEDLLYKEIHPTIIVSGYKKAEEIALKTIQDIAQPVSINDTDVLRKVALTSLGSKAVAGAREYLADLVVKAVAQVAELRGDKWYVDLDNVQIVKKHGGSINDTQLVYGIVVDKEVVHPGMPKRIENAKIALLDASLEVEKPELDAEIRINDPTQMHKFLEEEENILKEKVDKIAATGANVVIAQKGIDEVAQHYLAKKGILAVRRAKKSDLEKLARATGGRVISNIDELTSQDLGYAALVEERKVGEDKIVFVEGAKNPKSVSILIRGGLERVVDETERALRDALGTVADVIRDGRAVAGGGAVEIEIAKRLRKYAPQVGGKEQLAIEAYANAIEGLIMILAENAGLDPIDKLMQLRSLHENET
notes: Entry is the single subunit; Original termini are joined by the linker GGSGGT; Assembles into double rings with two rings of nine subunits each; also called circular permutant at position 480; permutant 480
binding result [1]: binds

B4: position 153 circular permutant chaperonin protein (Sulfolobus shibatae TF55 beta subunit, termini relocated after residue 153) (other)
chain: MAINDTDVLRKVALTSLGSKAVAGAREYLADLVVKAVAQVAELRGDKWYVDLDNVQIVKKHGGSINDTQLVYGIVVDKEVVHPGMPKRIENAKIALLDASLEVEKPELDAEIRINDPTQMHKFLEEEENILKEKVDKIAATGANVVIAQKGIDEVAQHYLAKKGILAVRRAKKSDLEKLARATGGRVISNIDELTSQDLGYAALVEERKVGEDKIVFVEGAKNPKSVSILIRGGLERVVDETERALRDALGTVADVIRDGRAVAGGGAVEIEIAKRLRKYAPQVGGKEQLAIEAYANAIEGLIMILAENAGLDPIDKLMQLRSLHENETNKWYGLNLFTGNPEDMWKLGVIEPALVKMNAIKAATEAVTLVLRIDDIVGGSGGTIPVIILKEGSSRTYGKEALRANIAAVKAIEEALKSTYGPRGMDKILVDSLGDITITNDGATILDKMDLQHPTGKLLVQIAKGQDEETADGTKTAVILAGELAKKAEDLLYKEIHPTIIVSGYKKAEEIALKTIQDIAQPVS
notes: Entry is the single subunit; Original termini are joined by the linker GGSGGT; also called circular permutant at position 153; permutant 153
binding result [2]: binds

B5: position 267 circular permutant chaperonin protein (Sulfolobus shibatae TF55 beta subunit, termini relocated after residue 267) (other)
chain: MADPTQMHKFLEEEENILKEKVDKIAATGANVVIAQKGIDEVAQHYLAKKGILAVRRAKKSDLEKLARATGGRVISNIDELTSQDLGYAALVEERKVGEDKIVFVEGAKNPKSVSILIRGGLERVVDETERALRDALGTVADVIRDGRAVAGGGAVEIEIAKRLRKYAPQVGGKEQLAIEAYANAIEGLIMILAENAGLDPIDKLMQLRSLHENETNKWYGLNLFTGNPEDMWKLGVIEPALVKMNAIKAATEAVTLVLRIDDIVGGSGGTIPVIILKEGSSRTYGKEALRANIAAVKAIEEALKSTYGPRGMDKILVDSLGDITITNDGATILDKMDLQHPTGKLLVQIAKGQDEETADGTKTAVILAGELAKKAEDLLYKEIHPTIIVSGYKKAEEIALKTIQDIAQPVSINDTDVLRKVALTSLGSKAVAGAREYLADLVVKAVAQVAELRGDKWYVDLDNVQIVKKHGGSINDTQLVYGIVVDKEVVHPGMPKRIENAKIALLDASLEVEKPELDAEIRIN
notes: Entry is the single subunit; Original termini are joined by the linker GGSGGT; Assembles into double rings with two rings of nine subunits each
binding result [3]: binds
